From US20110015136A1

Biological target: human membrane attack complex (MAC), C5b-9 complex (human) (UniProt P01031)
Test: cell-based or functional assay

complement mediated cell lysis (PI uptake, FACS; hepa-1c1c7 cells, 1000 vp/cell AdCAGCD59, 1% NHS): 12.3% | fold reduction of complement mediated cell lysis: 8 fold | inhibition of cell lysis at 250 vp/cell of AdCAGCD59: > 50% | inhibition of cell lysis at 500 vp/cell of AdCAGCD59: > 70% | reduction in MAC immunofluorescence intensity on corneal endothelium: 86% | reduction in MAC immunofluorescence on eyecups at 7.5 min NHS treatment: 68% | reduction in MAC immunofluorescence on eyecups at 15 min NHS treatment: 56% | reduction in mean MAC immunofluorescence intensity on RPE of eyecup tissues: 55%
B1: human CD59, glycosylphosphatidylinositol (GPI)-anchored membrane protein (protein, UniProt P13987 26-102, looked up)
chain: LQCYNCPNPTADCKTAVNCSSDFDACLITKAGLQVYNKCWKFEHCNFNDVTTRLRENELTYYCCKKDLCNFNEQLEN
modifications: GPI anchor at Asparagine 77 (mature numbering)
